In the supplement of paper PMC10567573:
± gives the standard deviation.

Assay: protein stability index of a GFP-peptide fusion (GPS, HEK-293T) (PSI 1-6); higher = more stable
Details: c terminus: a fixed tail appended
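Further: 24-mer peptide tiles fused after GFP, lentivirally expressed, FACS-sorted into six equal bins by GFP/DsRed ratio, decoded by Illumina sequencing, PSI is the read-weighted mean bin number.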

Sequence	protein stability index (treatment: DMSO)	protein stability index (treatment: MLN4924 1 uM, 8 h)
DLLHNVSQNIAAETRAEDPPWFEG [DFFB]	3.753 ± 0.011	3.85 ± 0.13
DLVFVIDGSKSLGEENFEVVKQFV [MATN2]	2.38 ± 0.35	2.44 ± 0.49
DMKPITVGGKIVGSLCAIAGVLTI [KCNA4]	2.88 ± 0.57	3.11 ± 0.32
DNEDYPLFRELWRYHFATGVWHQM [KLHDC10]	2 ± 0.76	2.03 ± 0.46
DNLLLDAKGHVKLSDFGLCTGLKK [STK38L]	3.12 ± 0.1	3.38 ± 0.44
DNRCKLFDSPSLCSSSTRSVLKRP [CDC25A]	3.48 ± 0.2	3.64 ± 0.28
DNSPTSNSLEGGTDATAFWWGEWT [ADAMTSL2]	3.62 ± 0.35	
DPQSGELPSERWNPTQNVRTILLS [CDC34]	3.31 ± 0.35	3.62 ± 0.43
DQVSACIPVFRLARRRKKILFYCH [ALG2]	2.22 ± 0.47	2.24 ± 0.075
DRDMFFKICESLNVPVDDSLVKEL [EFHC1]	3.22 ± 0.29	3.3 ± 0.18
DRLEEQLPWLSLRALKFRERDALE [DNAAF3]	3.4 ± 0.24	3.42 ± 0.19
DRYSEGIKHVLQTFGPIPEFSRAT [CRYL1]	3.06 ± 0.58	3.36 ± 0.3
DSFLVALDMDDGTLSFIVDGQYMG [SPSB1]	2.64 ± 0.63	2.74 ± 0.41
DSGQNAWLSYRLLKASEPGLFAVG [PCDHGA10]	2.14 ± 0.09	2.13 ± 0.063
DSMPQDLSEALKEATKEVHTQAEN [HMOX1]	5.39 ± 0.26	5.51 ± 0.19
DSSSSCSDHCITSSDMMDSSSFSN [VDR]	4.94 ± 0.28	5.01 ± 0.27
DTERLDDFHLSIHSDMAAIVKAMA [DVL3]	2.36 ± 0.2	2.49 ± 0.25
DTVTEVTARMEMLIEELYAFMPAR [CBY2]	2.38 ± 0.25	2.47 ± 0.48

Sequence	protein stability index (treatment: DMSO)	protein stability index (treatment: MLN4924 1 uM, 8 h)
DVARQLGKNNEFSRLVAGEYLSFF [PSD2]	2.26 ± 0.16	2.27 ± 0.44
DVCISILHPPVDDPQSGELPSERW [CDC34]	3.9 ± 0.28	4.01 ± 0.24
DVHDDVRLLSDATVEKDESHAGKV [FAM50A]	5.52 ± 0.26	5.43 ± 0.23
DVPDLQSVCSCTCYRSQDYGGRSV [KCNK9]	2.5 ± 0.36	2.81 ± 0.67
DVTADSKVLEALKLKGAEVTYMNM [PLD5]	3.57 ± 0.21	3.44 ± 0.29
DYAHGFGNISGEFWLGNEALHSLT [TNXB]	2.43 ± 0.73	2.82 ± 0.57
DYELEDETRPAKRITITESNMKSR [WEE1]	4.74 ± 0.35	5.16 ± 0.29
DYKDRSVFGVPLTVNVQRTGQPLP [DLC1]	3.62 ± 0.069	3.52 ± 0.17
DYSFLSLGVYSALREIAFTRQLHE [ATE1]	2.99 ± 1.3	2.68 ± 0.94
EALLDRESENASLREKLRLREAEI [LRRC45]	4.77 ± 0.26	4.89 ± 0.083
ECHIVVLTDDDVVDWDEEYPPQMG [BTBD10]	3.34 ± 0.29	3.73 ± 0.42
EDAHLTQYKKEPVTTRQVRTIVEE [KRT17]	5.01 ± 0.37	5.01 ± 0.19
EDGEKAAREVKLLLLGAGESGKST [GNAI1]	4.78 ± 0.25	5.28 ± 0.19
EDLLAKEKDNSRRMLTDKEREMAE [LMNB1]	5.6 ± 0.31	5.65 ± 0.28
EDSESLRIKEVEHMTRHLEESEKA [LRRC45]	5.5 ± 0.23	5.51 ± 0.2
EDSVFEERPERRSGPPASYCAKLC [C8orf76]	4.44 ± 0.29	4.6 ± 0.07
EEDLQSQSETQGLEGAQAPLAVEE [MAGEA10]	5.73 ± 0.14	5.75 ± 0.089
EEDNELNLPNLAAAYSSILSSLGE [GCH1]	3.68 ± 0.31	3.73 ± 0.16
